# Laboratory results from patent US20190177366A1 (published 2019).
# Numbered stars: 1 amine (or outer) side, 2 acyl side, 3 side chain; on linkers, the order of the positions; unused ones are H or OH. Bridge positions count the residues as written; N and C are the ends. Square brackets hold non-standard residues; d marks the D form. NH(CH2)9CO = O=C(CCCCCCCCCN[*:1])[*:2]; NH(CH2)8CO = O=C(CCCCCCCCN[*:1])[*:2]; hArg = N=C(N)NCCCC[C@H](N)C(=O)O; Aun = NCCCCCCCCCCC(=O)O
# Target: T1, His-tagged, full-length PCSK9 (human, UniProt A8T644 31-152; Q8NBP7 153-692)
# T1 construct: Target protein of the PCSK9/EGF(A) TR-FRET assay (10 nM); also called His-PCSK9; proprotein convertase subtilisin/kexin type 9
# Assay: TR-FRET competition; competitor EGF(A)-Fc on His-PCSK9
# T1 sequence (A8T644 31-152 limits assumed, chain 1 of 2): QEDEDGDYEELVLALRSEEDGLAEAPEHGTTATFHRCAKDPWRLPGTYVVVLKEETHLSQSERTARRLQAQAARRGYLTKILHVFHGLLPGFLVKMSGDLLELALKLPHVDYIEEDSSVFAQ
# T1 sequence (A8T644 other isoform, or with tags, fused parts or gaps limits assumed, chain 2 of 2): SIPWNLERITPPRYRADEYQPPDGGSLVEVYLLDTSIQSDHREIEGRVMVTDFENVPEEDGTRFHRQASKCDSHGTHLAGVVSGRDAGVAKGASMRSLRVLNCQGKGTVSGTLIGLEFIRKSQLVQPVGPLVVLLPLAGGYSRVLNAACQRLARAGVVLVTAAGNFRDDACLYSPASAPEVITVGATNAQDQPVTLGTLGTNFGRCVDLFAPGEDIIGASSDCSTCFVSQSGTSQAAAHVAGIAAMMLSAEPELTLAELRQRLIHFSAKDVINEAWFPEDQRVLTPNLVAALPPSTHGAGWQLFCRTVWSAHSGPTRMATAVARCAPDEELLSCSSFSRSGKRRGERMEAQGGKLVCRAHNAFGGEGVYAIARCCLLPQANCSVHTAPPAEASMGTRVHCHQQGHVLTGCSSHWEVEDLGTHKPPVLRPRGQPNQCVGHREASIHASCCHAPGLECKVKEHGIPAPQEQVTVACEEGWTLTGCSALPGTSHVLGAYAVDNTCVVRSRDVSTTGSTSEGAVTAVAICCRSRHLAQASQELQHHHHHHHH
row,IC50,Binder
1,> 50 µM,Ac-CRLPWNLQR[dI]GLPC-NH2 (disulfide 1-14; SMILES CC[C@@H](C)[C@H]1NC(=O)[C@H](CCCNC(=N)N)NC(=O)[C@H](CCC(N)=O)NC(=O)[C@H](CC(C)C)NC(=O)[C@H](CC(N)=O)NC(=O)[C@H](Cc2c[nH]c3ccccc23)NC(=O)[C@@H]2CCCN2C(=O)[C@H](CC(C)C)NC(=O)[C@H](CCCNC(=N)N)NC(=O)[C@@H](NC(C)=O)CSSC[C@@H](C(N)=O)NC(=O)[C@@H]2CCCN2C(=O)[C@H](CC(C)C)NC(=O)CNC1=O) [Compound 101]
2,> 50 µM,Ac-CRLPWNLQ[hArg]IGLPC-NH2 (disulfide 1-14; SMILES CC[C@H](C)[C@@H]1NC(=O)[C@H](CCCCNC(=N)N)NC(=O)[C@H](CCC(N)=O)NC(=O)[C@H](CC(C)C)NC(=O)[C@H](CC(N)=O)NC(=O)[C@H](Cc2c[nH]c3ccccc23)NC(=O)[C@@H]2CCCN2C(=O)[C@H](CC(C)C)NC(=O)[C@H](CCCNC(=N)N)NC(=O)[C@@H](NC(C)=O)CSSC[C@@H](C(N)=O)NC(=O)[C@@H]2CCCN2C(=O)[C@H](CC(C)C)NC(=O)CNC1=O) [Compound 117]
3,> 50 µM,Ac-CRLPWNLQR[Aun]C-NH2 (disulfide 1-11; SMILES CC(=O)N[C@H]1CSSC[C@@H](C(N)=O)NC(=O)CCCCCCCCCCNC(=O)[C@H](CCCNC(=N)N)NC(=O)[C@H](CCC(N)=O)NC(=O)[C@H](CC(C)C)NC(=O)[C@H](CC(N)=O)NC(=O)[C@H](Cc2c[nH]c3ccccc23)NC(=O)[C@@H]2CCCN2C(=O)[C@H](CC(C)C)NC(=O)[C@H](CCCNC(=N)N)NC1=O) [Compound 83]
4,> 50 µM,Ac-CRLPW[dN]LQRIGLPC-NH2 (disulfide 1-14; SMILES CC[C@H](C)[C@@H]1NC(=O)[C@H](CCCNC(=N)N)NC(=O)[C@H](CCC(N)=O)NC(=O)[C@H](CC(C)C)NC(=O)[C@@H](CC(N)=O)NC(=O)[C@H](Cc2c[nH]c3ccccc23)NC(=O)[C@@H]2CCCN2C(=O)[C@H](CC(C)C)NC(=O)[C@H](CCCNC(=N)N)NC(=O)[C@@H](NC(C)=O)CSSC[C@@H](C(N)=O)NC(=O)[C@@H]2CCCN2C(=O)[C@H](CC(C)C)NC(=O)CNC1=O) [Compound 105]
5,> 50 µM,Ac-CRLP[dW]NLQRIGLPC-NH2 (disulfide 1-14; SMILES CC[C@H](C)[C@@H]1NC(=O)[C@H](CCCNC(=N)N)NC(=O)[C@H](CCC(N)=O)NC(=O)[C@H](CC(C)C)NC(=O)[C@H](CC(N)=O)NC(=O)[C@@H](Cc2c[nH]c3ccccc23)NC(=O)[C@@H]2CCCN2C(=O)[C@H](CC(C)C)NC(=O)[C@H](CCCNC(=N)N)NC(=O)[C@@H](NC(C)=O)CSSC[C@@H](C(N)=O)NC(=O)[C@@H]2CCCN2C(=O)[C@H](CC(C)C)NC(=O)CNC1=O) [Compound 106]
6,> 50 µM,Ac-CRLPWNLQRIG[dL]PC-NH2 (disulfide 1-14; SMILES CC[C@H](C)[C@@H]1NC(=O)[C@H](CCCNC(=N)N)NC(=O)[C@H](CCC(N)=O)NC(=O)[C@H](CC(C)C)NC(=O)[C@H](CC(N)=O)NC(=O)[C@H](Cc2c[nH]c3ccccc23)NC(=O)[C@@H]2CCCN2C(=O)[C@H](CC(C)C)NC(=O)[C@H](CCCNC(=N)N)NC(=O)[C@@H](NC(C)=O)CSSC[C@@H](C(N)=O)NC(=O)[C@@H]2CCCN2C(=O)[C@@H](CC(C)C)NC(=O)CNC1=O) [Compound 100]
7,> 50 µM,"Ac-CRLPWNL[dQ]RIGLPC-NH2 (disulfide 1-14; SMILES CC[C@H](C)[C@@H]1NC(=O)[C@H](CCCNC(=N)N)NC(=O)[C@@H](CCC(N)=O)NC(=O)[C@H](CC(C)C)NC(=O)[C@H](CC(N)=O)NC(=O)[C@H](Cc2c[nH]c3ccccc23)NC(=O)[C@@H]2CCCN2C(=O)[C@H](CC(C)C)NC(=O)[C@H](CCCNC(=N)N)NC(=O)[C@@H](NC(C)=O)CSSC[C@@H](C(N)=O)NC(=O)[C@@H]2CCCN2C(=O)[C@H](CC(C)C)NC(=O)CNC1=O, also called Ac-CRLPWNLqRIGLPC-NH2) [Compound 103]"
8,> 50 µM,Ac-CRLPWNLQRIGL[dP]C-NH2 (disulfide 1-14; SMILES CC[C@H](C)[C@@H]1NC(=O)[C@H](CCCNC(=N)N)NC(=O)[C@H](CCC(N)=O)NC(=O)[C@H](CC(C)C)NC(=O)[C@H](CC(N)=O)NC(=O)[C@H](Cc2c[nH]c3ccccc23)NC(=O)[C@@H]2CCCN2C(=O)[C@H](CC(C)C)NC(=O)[C@H](CCCNC(=N)N)NC(=O)[C@@H](NC(C)=O)CSSC[C@@H](C(N)=O)NC(=O)[C@H]2CCCN2C(=O)[C@H](CC(C)C)NC(=O)CNC1=O) [Compound 99]
9,> 50 µM,Ac-CRLPWNLQR[NH(CH2)9CO]C-NH2 (disulfide 1-11; SMILES CC(=O)N[C@H]1CSSC[C@@H](C(N)=O)NC(=O)CCCCCCCCCNC(=O)[C@H](CCCNC(=N)N)NC(=O)[C@H](CCC(N)=O)NC(=O)[C@H](CC(C)C)NC(=O)[C@H](CC(N)=O)NC(=O)[C@H](Cc2c[nH]c3ccccc23)NC(=O)[C@@H]2CCCN2C(=O)[C@H](CC(C)C)NC(=O)[C@H](CCCNC(=N)N)NC1=O) [Compound 84]
10,> 50 µM,Ac-CRL[dP]WNLQRIGLPC-NH2 (disulfide 1-14; SMILES CC[C@H](C)[C@@H]1NC(=O)[C@H](CCCNC(=N)N)NC(=O)[C@H](CCC(N)=O)NC(=O)[C@H](CC(C)C)NC(=O)[C@H](CC(N)=O)NC(=O)[C@H](Cc2c[nH]c3ccccc23)NC(=O)[C@H]2CCCN2C(=O)[C@H](CC(C)C)NC(=O)[C@H](CCCNC(=N)N)NC(=O)[C@@H](NC(C)=O)CSSC[C@@H](C(N)=O)NC(=O)[C@@H]2CCCN2C(=O)[C@H](CC(C)C)NC(=O)CNC1=O) [Compound 107]
11,> 50 µM,Ac-CRAPWNLQRIGLPC-NH2 (disulfide 1-14; SMILES CC[C@H](C)[C@@H]1NC(=O)[C@H](CCCNC(=N)N)NC(=O)[C@H](CCC(N)=O)NC(=O)[C@H](CC(C)C)NC(=O)[C@H](CC(N)=O)NC(=O)[C@H](Cc2c[nH]c3ccccc23)NC(=O)[C@@H]2CCCN2C(=O)[C@H](C)NC(=O)[C@H](CCCNC(=N)N)NC(=O)[C@@H](NC(C)=O)CSSC[C@@H](C(N)=O)NC(=O)[C@@H]2CCCN2C(=O)[C@H](CC(C)C)NC(=O)CNC1=O) [Compound 78]
12,> 50 µM,Ac-CALPWNLQRIGLPC-NH2 (disulfide 1-14; SMILES CC[C@H](C)[C@@H]1NC(=O)[C@H](CCCNC(=N)N)NC(=O)[C@H](CCC(N)=O)NC(=O)[C@H](CC(C)C)NC(=O)[C@H](CC(N)=O)NC(=O)[C@H](Cc2c[nH]c3ccccc23)NC(=O)[C@@H]2CCCN2C(=O)[C@H](CC(C)C)NC(=O)[C@H](C)NC(=O)[C@@H](NC(C)=O)CSSC[C@@H](C(N)=O)NC(=O)[C@@H]2CCCN2C(=O)[C@H](CC(C)C)NC(=O)CNC1=O) [Compound 79]
13,> 50 µM,Ac-CRLPWNLQRIGLGC-NH2 (disulfide 1-14; SMILES CC[C@H](C)[C@@H]1NC(=O)[C@H](CCCNC(=N)N)NC(=O)[C@H](CCC(N)=O)NC(=O)[C@H](CC(C)C)NC(=O)[C@H](CC(N)=O)NC(=O)[C@H](Cc2c[nH]c3ccccc23)NC(=O)[C@@H]2CCCN2C(=O)[C@H](CC(C)C)NC(=O)[C@H](CCCNC(=N)N)NC(=O)[C@@H](NC(C)=O)CSSC[C@@H](C(N)=O)NC(=O)CNC(=O)[C@H](CC(C)C)NC(=O)CNC1=O) [Compound 80]
14,> 50 µM,Ac-CRLPWNLQRIGGGC-NH2 (disulfide 1-14; SMILES CC[C@H](C)[C@@H]1NC(=O)[C@H](CCCNC(=N)N)NC(=O)[C@H](CCC(N)=O)NC(=O)[C@H](CC(C)C)NC(=O)[C@H](CC(N)=O)NC(=O)[C@H](Cc2c[nH]c3ccccc23)NC(=O)[C@@H]2CCCN2C(=O)[C@H](CC(C)C)NC(=O)[C@H](CCCNC(=N)N)NC(=O)[C@@H](NC(C)=O)CSSC[C@@H](C(N)=O)NC(=O)CNC(=O)CNC(=O)CNC1=O) [Compound 81]
15,> 50 µM,Ac-CRLPWNLQR[NH(CH2)8CO]C-NH2 (disulfide 1-11; SMILES CC(=O)N[C@H]1CSSC[C@@H](C(N)=O)NC(=O)CCCCCCCCNC(=O)[C@H](CCCNC(=N)N)NC(=O)[C@H](CCC(N)=O)NC(=O)[C@H](CC(C)C)NC(=O)[C@H](CC(N)=O)NC(=O)[C@H](Cc2c[nH]c3ccccc23)NC(=O)[C@@H]2CCCN2C(=O)[C@H](CC(C)C)NC(=O)[C@H](CCCNC(=N)N)NC1=O) [Compound 85]
16,> 50 µM,"Ac-CRLPWN[dL]QRIGLPC-NH2 (disulfide 1-14; SMILES CC[C@H](C)[C@@H]1NC(=O)[C@H](CCCNC(=N)N)NC(=O)[C@H](CCC(N)=O)NC(=O)[C@@H](CC(C)C)NC(=O)[C@H](CC(N)=O)NC(=O)[C@H](Cc2c[nH]c3ccccc23)NC(=O)[C@@H]2CCCN2C(=O)[C@H](CC(C)C)NC(=O)[C@H](CCCNC(=N)N)NC(=O)[C@@H](NC(C)=O)CSSC[C@@H](C(N)=O)NC(=O)[C@@H]2CCCN2C(=O)[C@H](CC(C)C)NC(=O)CNC1=O, also called Ac-CRLPWNlQRIGLPC-NH2) [Compound 104]"
17,> 50 µM,Ac-CRLPWNLQ[dR]IGLPC-NH2 (disulfide 1-14; SMILES CC[C@H](C)[C@@H]1NC(=O)[C@@H](CCCNC(=N)N)NC(=O)[C@H](CCC(N)=O)NC(=O)[C@H](CC(C)C)NC(=O)[C@H](CC(N)=O)NC(=O)[C@H](Cc2c[nH]c3ccccc23)NC(=O)[C@@H]2CCCN2C(=O)[C@H](CC(C)C)NC(=O)[C@H](CCCNC(=N)N)NC(=O)[C@@H](NC(C)=O)CSSC[C@@H](C(N)=O)NC(=O)[C@@H]2CCCN2C(=O)[C@H](CC(C)C)NC(=O)CNC1=O) [Compound 102]
